“And” between values parts separate entries of the source, which are not always exact repeats. Equal values may be shown once. Read-outs that look alike come from different tables or passages of the source. One block for each binder: values may come before it.
Tests used:
Assay in all cases: SPR
human TfR ECD [1] = molecular target: human TfR ECD (human)
Target sequence in this assay (chain, as listed by the source): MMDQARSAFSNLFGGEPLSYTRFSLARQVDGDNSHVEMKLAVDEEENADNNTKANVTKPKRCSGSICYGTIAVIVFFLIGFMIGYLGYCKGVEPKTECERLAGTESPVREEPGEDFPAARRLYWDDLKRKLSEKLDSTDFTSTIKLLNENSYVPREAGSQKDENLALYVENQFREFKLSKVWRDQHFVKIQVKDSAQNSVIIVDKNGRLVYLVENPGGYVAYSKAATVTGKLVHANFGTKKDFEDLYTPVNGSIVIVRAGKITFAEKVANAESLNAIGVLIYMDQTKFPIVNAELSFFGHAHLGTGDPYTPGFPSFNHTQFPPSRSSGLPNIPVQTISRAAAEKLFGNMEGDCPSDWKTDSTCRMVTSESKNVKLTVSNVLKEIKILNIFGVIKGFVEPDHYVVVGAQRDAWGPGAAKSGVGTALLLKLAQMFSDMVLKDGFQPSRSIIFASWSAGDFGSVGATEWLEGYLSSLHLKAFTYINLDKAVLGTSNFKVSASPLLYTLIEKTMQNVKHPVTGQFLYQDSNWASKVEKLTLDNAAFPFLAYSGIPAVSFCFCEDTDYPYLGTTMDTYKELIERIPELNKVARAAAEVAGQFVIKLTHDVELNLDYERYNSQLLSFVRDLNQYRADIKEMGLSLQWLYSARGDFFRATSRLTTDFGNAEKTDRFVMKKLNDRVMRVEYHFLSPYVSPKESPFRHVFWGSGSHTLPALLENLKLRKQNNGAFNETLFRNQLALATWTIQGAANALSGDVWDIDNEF

cyno TfR ECD [2] = molecular target: T1, cyno TfR ECD (cynomolgus)
T1 chain: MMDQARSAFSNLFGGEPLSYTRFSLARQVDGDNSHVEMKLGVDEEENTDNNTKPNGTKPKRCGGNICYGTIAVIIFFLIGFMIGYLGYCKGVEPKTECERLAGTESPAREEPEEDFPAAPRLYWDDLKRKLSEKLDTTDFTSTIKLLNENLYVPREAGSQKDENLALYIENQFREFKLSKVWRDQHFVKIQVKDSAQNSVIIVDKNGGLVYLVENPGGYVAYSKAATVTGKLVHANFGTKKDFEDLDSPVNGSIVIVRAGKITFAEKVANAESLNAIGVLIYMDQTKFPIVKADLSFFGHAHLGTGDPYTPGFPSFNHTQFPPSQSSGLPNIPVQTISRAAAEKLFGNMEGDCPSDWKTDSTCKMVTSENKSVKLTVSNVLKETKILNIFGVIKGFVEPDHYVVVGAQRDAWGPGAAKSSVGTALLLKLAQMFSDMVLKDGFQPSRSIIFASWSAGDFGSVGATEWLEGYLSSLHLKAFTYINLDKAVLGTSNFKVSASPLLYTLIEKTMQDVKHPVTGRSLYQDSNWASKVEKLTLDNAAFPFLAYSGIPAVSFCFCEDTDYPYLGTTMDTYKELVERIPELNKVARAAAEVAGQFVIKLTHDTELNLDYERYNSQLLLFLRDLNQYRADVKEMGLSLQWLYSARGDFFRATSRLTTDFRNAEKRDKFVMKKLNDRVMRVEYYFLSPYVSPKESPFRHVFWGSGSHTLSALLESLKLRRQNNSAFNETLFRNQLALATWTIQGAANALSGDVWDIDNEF

human TfR ECD [3] = molecular target: human TfR ECD (human); remark: listed apart in the source
cyno TfR ECD [4] = molecular target: T1, cyno TfR ECD
cyno TfR ECD [5] = molecular target: T1, cyno TfR ECD
human TfR ECD [6] = molecular target: human TfR ECD (human); remark: listed apart in the source
human TfR ECD [7] = molecular target: human TfR ECD (human); remark: listed apart in the source
cyno TfR ECD [8] = molecular target: T1, cyno TfR ECD

Kd (human TfR ECD [1]): 7.03 nM | Kd (cyno TfR ECD [2]): 15.6 nM | Kd (human TfR ECD [3]): 4.7 nM and 8.91 nM | Kd (cyno TfR ECD [4]): 28.2 nM | Kd (cyno TfR ECD [5]): 28.2 nM | Kd (human TfR ECD [6]): 7.03 nM
B1: Hu15G11.v5 Fab (antibody, V domains shown)
VH: EVQLVQSGAEVKKPGASVKVSCKASGYTFTSYWMHWVRQAPGQRLEWIGEINPTNGRTNYIEKFKSRATLTVDKSASTAYMELSSLRSEDTAVYYCARGTRAYHYWGQGTMVTVSS
VL: DIQMTQSPSSLSASVGDRVTITCRASDNLYSNLAWYQQKPGKSPKLLVYDATNLADGVPSRFSGSGSGTDYTLTISSLQPEDFATYYCQHFWGTPLTFGQGTKVEIK

Kd (human TfR ECD [7]): 9 nM | Kd (cyno TfR ECD [8]): 23.7 nM
B2: Anti-TfR1/6266.hIgG1.N297G, TfR arm (antibody, V domains shown)
VH: B1 VH
VL: B1 VL

— US11008403 (dated 2021)
